Laboratory results as given in publication PMC12237034.

Experiments:
Coagulation factor XIa [1] = molecular target: Coagulation factor XIa
Coagulation factor XIa [2] = assay: enzyme inhibition kinetics; XIa (0.5 nM) preincubated with peptide 30 min at 37 °C, chromogenic substrate S2366; 50 mM Tris pH 7.4, 140 mM NaCl, 5 mM CaCl2, 0.1% BSA; double reciprocal plots, mixed inhibition

Schistosoma Kunitz peptide Shp4 (Schistosoma haematobium peptide-repeat 4) (domain or fragment)
inhibition of XIa activity on a chromogenic substrate, concentration dependent (Coagulation factor XIa [1]): 7.1 nM | Ki (Coagulation factor XIa [2]): 3.35 nM | Ki' (towards the enzyme-substrate complex) (Coagulation factor XIa [2]): 1.64 nM
